The record followed here is publication PMC10397247.

Common to all, as to experiment: two-hybrid library CCNG1;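 further: natural log of median RNA to DNA barcode read ratio; higher means stronger binding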
In one assay the target is T1, 4H3632-bH.
T1 chain: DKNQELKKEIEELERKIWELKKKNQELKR

A further assay addresses T2, 4H496-bH.
T2 chain: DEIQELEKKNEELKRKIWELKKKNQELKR

The target in the next assay is T3, 4H342-bN.
T3 chain: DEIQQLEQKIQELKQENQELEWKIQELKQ

The next assay deals with T4, 4H3632-bN.
T4 chain: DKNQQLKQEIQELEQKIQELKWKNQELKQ

The target of a further assay is T5, 4H4001-bN.
T5 chain: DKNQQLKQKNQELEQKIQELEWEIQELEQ

The target in a further assay is T6, 4H48-bN.
T6 chain: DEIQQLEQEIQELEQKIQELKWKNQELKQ

The target of another assay is T7, 4H491-bN.
T7 chain: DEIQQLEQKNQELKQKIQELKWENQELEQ

For another assay, the target named is T8, 4H496-bN.
T8 chain: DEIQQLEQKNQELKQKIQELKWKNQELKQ

The target in the next assay is T9, 4H2576-bH.
T9 chain: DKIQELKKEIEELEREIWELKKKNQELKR

The next assay addresses T10, 4H2610-bH.
T10 chain: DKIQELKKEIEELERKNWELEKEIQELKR

For a further assay, the target named is T11, 4H2618-bH.
T11 chain: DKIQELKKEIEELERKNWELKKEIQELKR

The next assay deals with T12, 4H2667-bH.
T12 chain: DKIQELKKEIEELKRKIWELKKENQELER

For another assay, the target named is T13, 4H2697-bH.
T13 chain: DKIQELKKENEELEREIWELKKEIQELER

Another assay has as its target T14, 4H2729-bH.
T14 chain: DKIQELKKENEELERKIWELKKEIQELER

The next assay deals with T15, 4H3112-bH.
T15 chain: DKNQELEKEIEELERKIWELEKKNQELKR

A further assay has as its target T16, 4H3185-bH.
T16 chain: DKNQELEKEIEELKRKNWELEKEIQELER

Another assay has as its target T17, 4H3189-bH.
T17 chain: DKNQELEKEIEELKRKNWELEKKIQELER

In another assay the target is T18, 4H331-bH.
T18 chain: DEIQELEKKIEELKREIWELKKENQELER

The next assay concerns the target T19, 4H3354-bH.
T19 chain: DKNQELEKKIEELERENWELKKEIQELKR

The target in the next assay is T20, 4H338-bH.
T20 chain: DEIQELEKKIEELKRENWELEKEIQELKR

Another assay concerns the target T21, 4H3427-bH.
T21 chain: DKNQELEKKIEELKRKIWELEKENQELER

A further assay concerns the target T22, 4H3606-bH.
T22 chain: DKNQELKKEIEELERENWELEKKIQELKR

The target in a further assay is T23, 4H370-bH.
T23 chain: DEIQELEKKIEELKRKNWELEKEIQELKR

The target of the next assay is T24, 4H3782-bH.
T24 chain: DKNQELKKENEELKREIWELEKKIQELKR

In a further assay the target is T25, 4H3843-bH.
T25 chain: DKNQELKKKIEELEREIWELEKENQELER

For a further assay, the target named is T26, 4H3855-bH.
T26 chain: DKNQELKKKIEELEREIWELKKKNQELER

The target of the next assay is T27, 4H4001-bH.
T27 chain: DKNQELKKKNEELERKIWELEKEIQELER

For the next assay, the target named is T28, 4H454-bH.
T28 chain: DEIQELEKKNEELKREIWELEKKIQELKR

A further assay concerns the target T29, 4H462-bH.
T29 chain: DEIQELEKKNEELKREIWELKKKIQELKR

The next assay addresses T30, 4H568-bH.
T30 chain: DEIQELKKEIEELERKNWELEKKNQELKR

The target of a further assay is T31, 4H607-bH.
T31 chain: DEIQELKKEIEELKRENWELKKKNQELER

The next assay deals with T32, 4H687-bH.
T32 chain: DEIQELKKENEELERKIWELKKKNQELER

In another assay the target is T33, 4H717-bH.
T33 chain: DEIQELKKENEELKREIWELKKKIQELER

The target of a further assay is T34, 4H72-bH.
T34 chain: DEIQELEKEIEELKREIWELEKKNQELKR

For the next assay, the target named is T35, 4H754-bH.
T35 chain: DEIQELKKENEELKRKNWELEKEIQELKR

In a further assay the target is T36, 4H797-bH.
T36 chain: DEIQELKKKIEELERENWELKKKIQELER

In a further assay the target is T37, 4H883-bH.
T37 chain: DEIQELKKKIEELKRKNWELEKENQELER

A further assay has as its target T38, 4H908-bH.
T38 chain: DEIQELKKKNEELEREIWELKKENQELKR

For another assay, the target named is T39, 4H918-bA.
T39 chain: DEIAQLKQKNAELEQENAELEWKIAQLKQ

The next assay concerns the target T40, 4H918-bH.
T40 chain: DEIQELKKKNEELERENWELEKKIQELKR

Another assay has as its target T41, 4H953-bA.
T41 chain: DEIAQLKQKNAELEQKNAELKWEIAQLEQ

The target of the next assay is T42, 4H953-bH.
T42 chain: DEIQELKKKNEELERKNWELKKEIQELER

The next assay addresses T43, 4H967-bH.
T43 chain: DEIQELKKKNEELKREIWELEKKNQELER

In a further assay the target is T44, 4H363-bH.
T44 chain: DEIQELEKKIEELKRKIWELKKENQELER

Another assay addresses T45, 4H3907-bH.
T45 chain: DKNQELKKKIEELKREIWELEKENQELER

The next assay concerns the target T46, 4H3961-bH.
T46 chain: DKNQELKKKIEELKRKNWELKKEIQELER

A further assay addresses T47, 4H470-bH.
T47 chain: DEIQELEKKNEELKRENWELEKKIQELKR

Take DKNQELKKEIEELERKIWELKKKNQELKR [4H3632-bH]: the interaction score with 4H3632-bH was -0.234; with 4H496-bH, -2.56.

DEIQQLEQKIQELKQENQELEWKIQELKQ [4H342-bN]: the interaction score was 1.33 in the assay with 4H342-bN; 0.807 with 4H3632-bN; -0.0564 in the assay with 4H4001-bN; -1.99 with 4H48-bN; 1.47 with 4H491-bN; 1.56 with 4H496-bN.

In the case of DKIQELKKEIEELEREIWELKKKNQELKR [4H2576-bH], the interaction score is 0.71 in the assay with 4H2576-bH; -0.788 with 4H2610-bH; 1.01 with 4H2618-bH; 0.467 with 4H2667-bH; -0.201 with 4H2697-bH; 1.93 with 4H2729-bH. The interaction score in the assay with 4H3112-bH is 0.913; in the assay with 4H3185-bH, 0.137; with 4H3189-bH it was 0.969; with 4H331-bH, 1.97; in the assay with 4H3354-bH, -0.952; in the assay with 4H338-bH, 0.794. For the same molecule, the interaction score is 1.73 with 4H3427-bH; -2.37 with 4H3606-bH; 1.62 with 4H370-bH; -0.128 with 4H3782-bH; 1.11 with 4H3843-bH; 0.305 with 4H3855-bH. Moreover, the interaction score with 4H4001-bH is 1.28; with 4H454-bH it was 1.67; in the assay with 4H462-bH it was 0.615; with 4H568-bH, 0.102; with 4H607-bH it was -1.37; with 4H687-bH, -0.475. The interaction score in the assay with 4H717-bH is -1.86; in the assay with 4H72-bH, 0.621; with 4H754-bH it was -2.65; with 4H797-bH it was -0.961; with 4H883-bH, -0.465; in the assay with 4H908-bH, -1.34. The interaction score with 4H918-bA is -0.341; with 4H918-bH it was -0.721; with 4H953-bA, -1.63; in the assay with 4H953-bH it was -0.152; in the assay with 4H967-bH, -3.3.

Take DEIQELEKKIEELKRKIWELKKENQELER [4H363-bH]: the interaction score was 1.36 with 4H363-bH, 1.26 with 4H3907-bH, 0.532 with 4H3961-bH and 0.465 in the assay with 4H470-bH.
